In publication PMC12105683, “Generation of Conformation‐Specific Monoclonal Antibodies for Integral Membrane Proteins” (Current Protocols, 2025):
Values belong to the binder of their own block, whether it stands above or below them.

Tests used:
Settings in all cases: both partners purified
[1] = target: T1, GFP-conjugated GluN1/GluN3A receptor (Rattus norvegicus, UniProt P35439;Q9R1M7); assay: SEC; fluorescence-detection SEC (FSEC) shift assay; receptor incubated with mAbs individually and in combination at a 1:2 molar ratio; Superose 6 Increase 10/300 GL, 20 mM Tris, 150 mM NaCl, 0.075% LMNG
T1 construct: GluN1 subunit of the NMDA receptor; GluN3A subunit of the NMDA receptor; also called GluN1/GluN3A NMDAR; GluN1/N3A NMDAR; source: HEK293S GnTI- cells/tSA201 cells, baculovirus transduction (pEG BacMam); copies: 2 + 2

TARP γ‐2 [2] = target: T2, TARP γ‐2 (printed accession Q71RJ2 is rat; table …, UniProt Q71RJ2); assay: BLI; Octet RED384; mAb (25 µg/ml) captured on anti-mouse IgG Fc capture (AMC) biosensors, iGluR as analyte; TBS with 0.075% LMNG or 1 mM DDM; association 900 s, dissociation 1800 s; 1:1 model, global fit
T2 construct: TARP γ-2 (stargazin), AMPAR auxiliary subunit; also called transmembrane AMPAR regulatory protein γ-2; source: HEK293S GnTI- cells/tSA201 cells, baculovirus transduction (pEG BacMam)

TARP γ‐8 [3] = target: T3, TARP γ‐8 (Mus musculus, UniProt Q8VHW2); assay: SEC; fluorescence-detection SEC (FSEC) shift assay; receptor incubated with mAbs individually and in combination at a 1:2 molar ratio; Superose 6 Increase 10/300 GL, 20 mM Tris, 150 mM NaCl, 0.075% LMNG
T3 construct: TARP γ-8, AMPAR auxiliary subunit; also called transmembrane AMPAR regulatory protein γ-8; source: HEK293S GnTI- cells/tSA201 cells, baculovirus transduction (pEG BacMam)

GluA2 AMPAR = target: T4, GluA2 AMPAR (Rattus norvegicus, UniProt P19491); assay: BLI; Octet RED384; mAb (25 µg/ml) captured on anti-mouse IgG Fc capture (AMC) biosensors, iGluR as analyte; TBS with 0.075% LMNG or 1 mM DDM; association 900 s, dissociation 1800 s; 1:1 model, global fit
T4 construct: GluA2 subunit of the AMPA receptor; source: HEK293S GnTI- cells/tSA201 cells, baculovirus transduction (pEG BacMam)

TARP γ‐8 [4] = target: T3, TARP γ‐8; assay: as above
TARP γ‐2 [5] = target: T2, TARP γ‐2; assay: SEC; fluorescence-detection SEC (FSEC) shift assay; receptor incubated with mAbs individually and in combination at a 1:2 molar ratio; Superose 6 Increase 10/300 GL, 20 mM Tris, 150 mM NaCl, 0.075% LMNG
GluN2A = target: T5, GluN2A (Rattus norvegicus, UniProt P35439;G3V9C5); assay: BLI; Octet RED384; mAb (25 µg/ml) captured on anti-mouse IgG Fc capture (AMC) biosensors, iGluR as analyte; TBS with 0.075% LMNG or 1 mM DDM; association 900 s, dissociation 1800 s; 1:1 model, global fit
T5 construct: also called GluN2A subunit; source: HEK293S GnTI- cells/tSA201 cells, baculovirus transduction (pEG BacMam)

GluN3A = target: T6, GluN3A (Rattus norvegicus, UniProt P35439;Q9R1M7); assay: as above
T6 construct: also called GluN3A subunit; source: HEK293S GnTI- cells/tSA201 cells, baculovirus transduction (pEG BacMam)

GluN1 = target: T7, GluN1 (Xenopus laevis, UniProt A0A1L8F5J9); assay: as above
T7 construct: also called GluN1 subunit; source: HEK293S GnTI- cells/tSA201 cells, baculovirus transduction (pEG BacMam)

GluN1/GluN2A NMDAR = target: T8, GluN1/GluN2A NMDAR (Rattus norvegicus, UniProt P35439;G3V9C5); assay: SEC; fluorescence-detection SEC (FSEC) shift assay; receptor incubated with mAbs individually and in combination at a 1:2 molar ratio; Superose 6 Increase 10/300 GL, 20 mM Tris, 150 mM NaCl, 0.075% LMNG
T8 construct: GluN1 subunit of the NMDA receptor; GluN2A subunit of the NMDA receptor; also called GluN1/N2A receptor; GluN1/N2A; source: HEK293S GnTI- cells/tSA201 cells, baculovirus transduction (pEG BacMam); copies: 2 + 2

GluA3 AMPAR = target: T9, GluA3 AMPAR (Rattus norvegicus, UniProt P19492); assay: BLI; Octet RED384; mAb (25 µg/ml) captured on anti-mouse IgG Fc capture (AMC) biosensors, iGluR as analyte; TBS with 0.075% LMNG or 1 mM DDM; association 900 s, dissociation 1800 s; 1:1 model, global fit
T9 construct: GluA3 subunit of the AMPA receptor; source: HEK293S GnTI- cells/tSA201 cells, baculovirus transduction (pEG BacMam)

GluA1 AMPAR = target: T10, GluA1 AMPAR (Rattus norvegicus, UniProt P19490-2); assay: as above
T10 construct: GluA1 subunit of the AMPA receptor; source: HEK293S GnTI- cells/tSA201 cells, baculovirus transduction (pEG BacMam)

T2 sequence (Q71RJ2 whole entry, one chain of several): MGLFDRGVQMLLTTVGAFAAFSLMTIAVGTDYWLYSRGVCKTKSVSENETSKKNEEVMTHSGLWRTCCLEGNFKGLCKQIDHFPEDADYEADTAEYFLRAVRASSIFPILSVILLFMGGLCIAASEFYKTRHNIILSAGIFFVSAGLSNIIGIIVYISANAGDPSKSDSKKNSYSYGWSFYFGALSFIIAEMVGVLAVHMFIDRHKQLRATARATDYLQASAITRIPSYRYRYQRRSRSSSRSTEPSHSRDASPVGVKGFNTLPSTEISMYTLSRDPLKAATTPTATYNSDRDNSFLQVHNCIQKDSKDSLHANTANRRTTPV

binding result [1]: binds
B1: 2D3 mAb (antibody, V domains shown)
VH: EVQLVESGGGLVKPGGSLKLSCAASGFAFSTYDMSWVRQTPEKRLEWVAYISGGGGTTYYPGTVKGRFTISRDNAKNTLYLQMSSLKSEDTAMYYCARQGYGYSMDYWGQGTSVTVSS
VL: DVVMTQTPLSLPVSLGDQASISCRSSQSLVHSNGDTYLLWYLQKPGQSPKLLIYKVSNRFSGVPDRFSGSGSGTDFTLKISRVEAEDLGVYFCSQSTHVPRTFGGGTKLEIK
notes: IgG2b/kappa; source: purified (Protein A/G agarose)

Kd (GluA2 AMPAR): < 0.001 nM | koff (GluA2 AMPAR): < 1e-07 s⁻¹ | kon (GluA2 AMPAR): 1.02e+06 M⁻¹ s⁻¹
B3: 15F1 mAb (antibody, V domains shown)
VH: QAQLKESGPGLVAPSQSLSITCTVSGFSLTNYGVHWVRQPPGKGLEWLGVIWAGGSTNYNSALMSRVSISKDNSKSQVFLKMNSLQTDDTVMYYCAREDYDYDWHFDVWGAGTTVTVSS
VL: EIQMTQTTSSLSASLGDRVTISCRASQDISNYLSWYQQKPDGTVKLLIYYTSRLHSGVPSRFSGSGSGIDYSLTINNLEQEDFATYFCQQGNTLPLTFGAGTKLELK
notes: IgG1/kappa; source: mouse hybridoma, bioreactor flask; purified (Protein A/G agarose)

Kd (TARP γ‐8 [4]): 3.1 nM | koff (TARP γ‐8 [4]): 0.00103 s⁻¹ | kon (TARP γ‐8 [4]): 45900 M⁻¹ s⁻¹ | binding result (TARP γ‐2 [5]): binds
B4: 9B5 mAb (antibody, V domains shown)
VH: EVQLQQSGAELVRSGASVKLSCTTSGFNIKDYYMHWVKQRPEQGLEWIGWIDPENGDAEYAPKFQGKATMTADTSSNTAYLQLSSLTSEDTAVYYCNSGVAYWGQGTLVTVSA
VL: not shown
notes: IgG2a/kappa; source: mouse hybridoma, bioreactor flask; purified (Protein A/G agarose)

koff (GluA1 AMPAR): < 1e-07 s⁻¹ | kon (GluA1 AMPAR): 123000 M⁻¹ s⁻¹
B9: 11B8 mAb (antibody, V domains shown)
VH: EVKLLESGGGLVQPGGSLKLSCAASGFDFSEYWMSWVRQAPGKGLEWIGEINPDSSSIDYTPSLKDKIIISRDNAKKTLYLQLSKVRSEDTALYYCARPRGNYVVMDYWGQGTSVTVSS
VL: NIVLTQSPASLAVSLGQRATISCRASESVDSYGSSFVHWYQQKPGQPPKLLIFLASKLESGVPARFSGSGSRTDFTLTIDPVEADDAATYYCQQTNEDPYTFGGGTKLEIK
notes: IgG2b/kappa; source: mouse hybridoma, bioreactor flask; purified (Protein A/G agarose)

binding result [1]: binds
B10: 3G9 mAb (antibody, V domains shown)
VH: KVQLQQSGAGLVKPGASVKLSCKASGYTFTDYIIHWIKQRSGQGLEWIGWFYPGSGSIKYNEKFKDKATLTADYSSSTVYMELSRLTSEDSAVYFCARHEHRGYYGDYPMDYWGQGTSVTVSS
VL: DIVMSQSPSSLAVSVGEKVTMSCKSSQSLLYSNNQKNYLAWYQQKPGQSPKLLIYWASTRESGVPDRFTGSGSGTDFTLTISSVKAEDLAVYYCQQYYSYPPYTFGGGTKLEIK
notes: IgG2a/kappa; source: purified (Protein A/G agarose)

Further lines, the binder ahead of its results:

B2: 4B2 mAb (antibody, V domains shown)
VH: EVQLQQSGAELVRSGASVKLSCTGSGFNIKDYYMHWVKQRPEQGLEWIGWIDPENGDTEYAPKFQGKATMTADTSSNTAYLHLSSLSSEDTAVYYCKGDYRYDDGGNYWGQGTSVTVSS
VL: DIQMTQTTSSLSASLGDRVTISCRASQDISNYLNWFQQKPDGTVKLLIYYTSRLHSGVPSRFSGSGSGTDYSLTINNLEQEDIATYFCQQGDSLPWTFGGGTKLEIK
notes: as for B4
Kd (TARP γ‐2 [2]): 4.5 nM | koff (TARP γ‐2 [2]): 0.000119 s⁻¹ | kon (TARP γ‐2 [2]): 50300 M⁻¹ s⁻¹ | binding result (TARP γ‐8 [3]): binds

B5: 3D2 mAb (antibody, V domains shown)
VH: QVQLQQSGAELMKPGASVKISCKATGYTFRSYWIEWLKQRPGHGLEWIGEILPGSGRTNYNEKFKGKATITADTSSNTAYMQLSSLTSEDSAVYYCTRSRGTMITREFTYWGQGALVTVSA
VL: DIVLTQSPASLAVSLGQRATISCRASESVEYYGTTLMQWYQQKPGQPPKLLIYAASNVDSGVPARFSGSGSGTDFSLNIHPVEEDDIAMYFCQQSRKVPSTFGGGTKLEIK
notes: as for B3
koff (GluN2A): < 1e-07 s⁻¹ | kon (GluN2A): 1.85e+06 M⁻¹ s⁻¹

B6: 5E3 mAb (antibody, V domains shown)
VH: QVQLQQPGAELVRPGASVKLSCKASGYSFTSYWMNWVKQRPGQGLEWIGMIHPSDSESRLNQKFKDKATLTVDKSSSTAYMQLRSPTSEDSAVYYCARSAYYRSFDYWGQGTTLTVSS
VL: DVLMTQTPLSLPVSLGDQASISCRSSQNIVHSNGNTYLEWYLQKPGQSPKLLIHKVSNRFSGVPDRFSGSGSGTDFTLKISRVEAEDLGVYYCFQGSHVPYTFGGGTKLEIK
notes: IgG1/kappa; source: purified (Protein A/G agarose)
Kd (GluN3A): 1.4 nM | koff (GluN3A): 1.99e-05 s⁻¹ | kon (GluN3A): 83700 M⁻¹ s⁻¹

B7: 5F11 mAb (antibody, V domains shown)
VH: QGQMQQSGAELVKPGASVKLSCKTSGFSFSTSYINWLKQKPGQSLEWIAWIYAGTDGTSYNQKFTDKAQLTVDTSSSTAYMQFSSLTTDDSAIYYCAREGIYYGNYAGFTYWGQGTLVTVSA
VL: DIVMTQSPSSLAVTAGEKVTMRCKSSQSLLWSVNQNNYLSWYQQKQGQPPKLLIYGASIRESWVPDRFTGSGSGTDFTLTISNVHAEDLAVYYCQHNHGSFLPYTFGGGTKLEIK
notes: as for B3
Kd (GluN1): 0.43 nM | koff (GluN1): 6.19e-05 s⁻¹ | kon (GluN1): 142000 M⁻¹ s⁻¹ | binding result (GluN1/GluN2A NMDAR): binds

B8: 5B2 mAb (antibody, V domains shown)
VH: EVQLQESGPSLVKPSQTLSLTCSVTGDSITSGYWNWIRKFPGNKLEYMGHISYRGSTYYNPSLKSRISITRDTSKNQYYLQLNSVTTEDTATYYCASRSYDEGFDSWGQGTTLTVSS
VL: NIVLTQSPASLAVSLGQRATISCRASESLDSYGNSFMHWYQQKPGQPPKLLIYLASNLESGVPARFSGSGSRTDFTLTIDPVEADDAATYYCQQNKEDLLTFGAGTKLELK
notes: as for B3
Kd (GluA3 AMPAR): < 0.001 nM | koff (GluA3 AMPAR): < 1e-07 s⁻¹ | kon (GluA3 AMPAR): 758000 M⁻¹ s⁻¹
